# Experimental data published in IntAct's records for PubMed 18957540.
# Biological target: ntrk2_rat Ntrk2 (UniProt Q63604)
# Sequence (Q63604 whole entry): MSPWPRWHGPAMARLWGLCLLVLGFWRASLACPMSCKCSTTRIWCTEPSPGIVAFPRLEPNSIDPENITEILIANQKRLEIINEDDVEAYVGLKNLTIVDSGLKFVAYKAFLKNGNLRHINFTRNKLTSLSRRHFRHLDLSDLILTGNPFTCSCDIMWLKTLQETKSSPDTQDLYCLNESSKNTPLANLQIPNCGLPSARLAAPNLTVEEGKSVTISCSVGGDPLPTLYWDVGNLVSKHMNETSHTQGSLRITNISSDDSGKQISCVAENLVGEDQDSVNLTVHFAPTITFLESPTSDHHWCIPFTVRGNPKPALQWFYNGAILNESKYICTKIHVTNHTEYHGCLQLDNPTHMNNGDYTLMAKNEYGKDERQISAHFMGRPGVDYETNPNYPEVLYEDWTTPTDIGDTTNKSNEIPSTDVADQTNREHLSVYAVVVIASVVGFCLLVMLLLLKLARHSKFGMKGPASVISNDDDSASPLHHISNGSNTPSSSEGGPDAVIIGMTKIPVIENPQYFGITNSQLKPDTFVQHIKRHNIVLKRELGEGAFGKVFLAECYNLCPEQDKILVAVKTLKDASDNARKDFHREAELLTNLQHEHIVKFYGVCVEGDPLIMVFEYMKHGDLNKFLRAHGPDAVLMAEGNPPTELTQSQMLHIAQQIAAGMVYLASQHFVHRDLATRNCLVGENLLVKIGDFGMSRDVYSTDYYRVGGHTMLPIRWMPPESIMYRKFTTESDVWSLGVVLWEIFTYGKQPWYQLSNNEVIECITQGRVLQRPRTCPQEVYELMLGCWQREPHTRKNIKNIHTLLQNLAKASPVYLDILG
substance,measurement,value
Protein farnesyltransferase/geranylgeranyltransferase type-1 subunit alpha (Rattus norvegicus (Rat)) (from UniProt Q04631) Y166A,effect of a mutation on the interaction,decreasing interaction strength
